Numbering of substitutions follows the chain as printed. Numbers in names are those of the source.
T1: human FcγRIIaR extracellular domain, C-terminal His-tag (human, UniProt P12318 34-217)
T1 construct: also called human FcγRIIa (type R); FcgRIIaR; not shown: His-tag added to the C-terminus
T1 chain: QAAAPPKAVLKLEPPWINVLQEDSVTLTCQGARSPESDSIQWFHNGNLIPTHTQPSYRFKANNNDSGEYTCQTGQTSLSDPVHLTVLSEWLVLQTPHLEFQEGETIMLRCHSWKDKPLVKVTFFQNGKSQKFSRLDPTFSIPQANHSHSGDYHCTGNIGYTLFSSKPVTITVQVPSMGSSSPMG

T2: cynomolgus monkey FcγRIIa1 extracellular domain, C-terminal His-tag (cynomolgus monkey)
T2 construct: also called cyno FcγRIIa1; FcgRIIa1; not shown: His-tag added to the C-terminus
T2 chain: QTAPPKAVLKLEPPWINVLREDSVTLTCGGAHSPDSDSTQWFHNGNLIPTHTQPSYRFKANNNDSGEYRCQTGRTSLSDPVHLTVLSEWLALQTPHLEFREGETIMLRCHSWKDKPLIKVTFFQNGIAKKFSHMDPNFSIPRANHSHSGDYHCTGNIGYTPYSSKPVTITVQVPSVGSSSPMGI

T3: cynomolgus monkey FcγRIIa2 extracellular domain, C-terminal His-tag (cynomolgus monkey)
T3 construct: also called cyno FcγRIIa2; FcgRIIa2; not shown: His-tag added to the C-terminus
T3 chain: T2 chain with P95T, T121A, I127K, A128S, K130N, D135N, R142Q

T4: human FcγRIIb extracellular domain, C-terminal His-tag (human, UniProt P31994 43-217)
T4 construct: also called FcgRIIb; not shown: His-tag added to the C-terminus
T4 sequence: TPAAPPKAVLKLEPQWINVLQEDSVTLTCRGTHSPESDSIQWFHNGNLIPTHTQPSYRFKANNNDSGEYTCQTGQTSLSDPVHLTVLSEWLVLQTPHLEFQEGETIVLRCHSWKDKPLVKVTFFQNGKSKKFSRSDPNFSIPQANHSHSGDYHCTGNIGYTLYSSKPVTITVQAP

T5: cynomolgus monkey FcγRIIb extracellular domain, C-terminal His-tag (cynomolgus monkey)
T5 construct: also called cyno FcγRIIb; cynoFcγRIIb; not shown: His-tag added to the C-terminus
T5 chain: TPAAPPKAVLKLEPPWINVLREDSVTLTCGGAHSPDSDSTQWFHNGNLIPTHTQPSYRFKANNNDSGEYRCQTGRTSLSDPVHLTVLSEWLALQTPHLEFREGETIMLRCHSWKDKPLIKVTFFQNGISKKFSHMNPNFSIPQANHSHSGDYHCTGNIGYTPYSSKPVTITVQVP

T6: cynomolgus monkey FcγRIIa3 extracellular domain, C-terminal His-tag (cynomolgus monkey)
T6 construct: also called cyno FcγRIIa3; FcgRIIa3; not shown: His-tag added to the C-terminus
T6 chain: T2 chain with P95T, T121A, A128S, H133P, D135N

B1: MS1032LO06-MY352 (M103205H795-MY352/M103202L889-SK1) (antibody, human IgG1, kappa, name in EU numbering)
heavy: QVTLKESGPVLVKPTETLTLTCTVSGIDLSHDDISWVRQAPGKGLEWVGIISYAGSTYYASWAKGRLTISKDTSKNQVVLTMTNMDPVDTATYYCARGVPAYSHGGDLWGQGTLVTVSSASTKGPSVFPLAPSSKSTSGGTAALGCLVKDYFPEPVTVSWNSGALTSGVHTFPAVLQSSGLYSLSSVVTVPSSSLGTQTYICNVNHKPSNTKVDKKVEPKSCDKTHTCPPCPAPELLNGPSVFLFPPKPKDTLMISRTPEVTCVVVDVSDEDPEVKFNWYVDGVEVHNAKTKPREEQYNSTYRVVSVLTVLHRDWLNGKEYKCKVSNKALPKPIEKTISKAKGQPREPQVYTLPPSREEMTKNQVSLTCLVKGFYPSDIAVEWESNGQPENNYKTTPPVLDSDGSFFLYSKLTVRKSRWQQGNVFSCSVMHEALHNHYTQKSLSLSP
light: DIVMTQSPATLSLSPGERATLSCTSSQSVYHANWLSWFQQKPGQPPKLLIYWASTLAYGVPSRFSGSGSGTDFTLTISSLQPEDAATYYCAGGYGGGRYAFGQGTKVEIKRTVAAPSVFIFPPSDEQLKSGTASVVCLLNNFYPREAKVQWKVDNALQSGNSQESVTEQDSKDSTYSLSSTLTLSKADYEKHKVYACEVTHQGLSSPVTKSFNRGEC
notes: Printed substitutions: G236N/H268D/Q311R/A330K/D413R (EU numbering); also called MS103205H795-MY352
B2: MS1032LO06-PK56 (M103205H795-PK56/M103202L889-SK1) (antibody, human IgG1, kappa)
heavy: B1 heavy with P345R
light: B1 light
notes: CH PK56 = SG1 with G236N/H268D/Q311R/A330K/P343R/D413R (EU numbering); also called MS103205H795-PK56
B3: MS1032LO06-PK57 (M103205H795-PK57/M103202L889-SK1) (antibody, human IgG1, kappa)
heavy: B1 heavy with N386R
light: B1 light
notes: CH PK57 = SG1 with G236N/H268D/Q311R/A330K/N384R/D413R (EU numbering); also called MS103205H795-PK57
B4: MS1032LO06-PK55 (M103205H795-PK55/M103202L889-SK1) (antibody, human IgG1, kappa)
heavy: B1 heavy with P345R, R415D
light: B1 light
notes: CH PK55 = SG1 with G236N/H268D/Q311R/A330K/P343R (EU numbering); also called MS103205H795-PK55

target: T7, cynomolgus monkey FcγRIIIaS extracellular domain, C-terminal His-tag (cynomolgus monkey, UniProt A3RFZ7 21-206 (rhesus entry)); test: SPR (BIACORE), antibody captured, soluble FcgR as analyte, 25C
T7 construct: also called cyno FcγRIIIaS; FcgRIIIaS; not shown: His-tag added to the C-terminus
Protocol: (§1) The kinetic analysis of interactions between these antibodies and FcγR was carried out using BIACORE® T200 or BIACORE® 4000 (GE Healthcare). HBS-EP+ (GE Healthcare) was used as the running buffer, and the measurement temperature was set to 25° C. A chip produced by immobilizing Protein A. Protein A/G or mouse anti-human IgG kappa light chain (BD Biosciences) onto a Series S Sensor Chip CM4 or CM5 (GE Healthcare) by the amine-coupling method was used. […] After the measurement, the antibody captured on the chip was washed off by allowing reaction with 10 mM glycine-HCl, pH1.5 and 25 mM NaOH so that the chip was regenerated and used repeatedly. The sensorgrams obtained as measurement results were analyzed by the 1:1 Langmuir binding model using the BIACORE® Evaluation Software to calculate the binding rate constant ka (L/mol/s) and dissociation rate constant kd (l/s), and the dissociation constant KD (mol/L) was calculated from these values. […] Regarding such interactions, KD values were calculated using the following 1:1 binding model described in BIACORE® T100 Software Handbook BR1006-48 Edition AE.
(§2) The behavior of interacting molecules according to the 1:1 binding model on BIACORE® can be described by Equation 1: Req=C·R max/(KD+C)+RI, wherein, Req is a plot of steady-state binding levels to analyte concentration. C is concentration, RI is bulk refractive index contribution in the sample, and Rmax is analyte binding capacity of the surface. When this equation is rearranged, KD can be expressed as Equation 2: KD=C·Rmax/(Req−RI)−C. KD can be calculated by substituting the values of Rmax, RI, and C into Equation 1 or Equation 2. From the current measurement conditions, RI=0, C=2 μmol/L can be used.

T7 sequence (A3RFZ7 21-206): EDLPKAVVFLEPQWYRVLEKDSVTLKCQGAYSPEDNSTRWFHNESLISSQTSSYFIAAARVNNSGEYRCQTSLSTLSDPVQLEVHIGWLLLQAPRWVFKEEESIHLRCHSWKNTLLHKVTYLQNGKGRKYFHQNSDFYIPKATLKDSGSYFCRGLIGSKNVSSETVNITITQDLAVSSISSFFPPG

Row | Kd [nM] | Binder
1 | 4000 | B1
2 | 4400 | B2
3 | 4300 | B3
4 | 3300 | B4

Target: T1, human FcγRIIaR extracellular domain, …
Test: as above
Protocol: as §1, §2

Row | Kd [nM] | Binder
5 | 1600 | B1
6 | 1900 | B2
7 | 2200 | B3
8 | 1500 | B4

Target: T2, cynomolgus monkey FcγRIIa1 …
Test: as above
Protocol: as §1, §2

Row | Kd [nM] | Binder
9 | 1700 | B1
10 | 1800 | B2
11 | 1900 | B3
12 | 1400 | B4

Target: T3, cynomolgus monkey FcγRIIa2 …
Test: as above
Protocol: as §1, §2

Row | Kd [nM] | Binder
13 | 1300 | B1
14 | 1500 | B2
15 | 1700 | B3
16 | 1200 | B4

target: T4, human FcγRIIb extracellular domain, …; test: as above
Protocol: as §1, §2

Row | Kd [nM] | Binder
17 | 1000 | B1
18 | 1000 | B2
19 | 1200 | B3
20 | 760 | B4

Target: T5, cynomolgus monkey FcγRIIb extracellular …
Test: as above
Protocol: as §1, §2

Row | Kd [nM] | Binder
21 | 420 | B1
22 | 500 | B2
23 | 520 | B3
24 | 360 | B4

Target: T6, cynomolgus monkey FcγRIIa3 …
Test: as above
Protocol: as §1, §2

Row | Kd [nM] | Binder
25 | 2200 | B1
26 | 2500 | B2
27 | 3100 | B3
28 | 2000 | B4

target: T8, human FcγRIIIaV extracellular domain, C-terminal His-tag (human, UniProt P08637 17-208); test: as above
T8 construct: also called FcgRIIIaV; not shown: His-tag added to the C-terminus
Protocol: as §1, §2

T8 sequence (P08637 17-208 F176V): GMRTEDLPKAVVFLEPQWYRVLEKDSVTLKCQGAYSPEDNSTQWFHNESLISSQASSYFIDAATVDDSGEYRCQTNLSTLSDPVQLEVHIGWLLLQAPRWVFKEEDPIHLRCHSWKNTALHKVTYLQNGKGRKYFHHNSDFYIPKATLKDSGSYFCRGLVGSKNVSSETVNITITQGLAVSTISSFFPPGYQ

Row | Kd [nM] | Binder
29 | 11000 | B1
30 | 10000 | B2
31 | 23000 | B3
32 | 13000 | B4
